Measured values taken from article PMC8795117, “Structures and function of a tailoring oxidase in complex with a nonribosomal peptide synthetase module” (Nature Communications, 2022).
Values joined by “and” are separate entries in the source; they are usually repeats but may differ in a detail not shown here. Identical values can stand only once.

Target: T1, BmdC (Thermoactinomyces vulgaris F-5595)
T1 construct: BmdC, FMN-dependent oxidase of the bacillamide pathway, Thermoactinomyces vulgaris F-5595 (WP_022737638.1); RREL domain, 45-residue loop, Ox domain (residues 142-325); Co-purifies with FMN; also called oxidase BmdC; dimeric BmdC; source: E. coli BL21(DE3), purified (IMAC, CBP column, TEV cleavage, gel filtration)
Test: ITC; 600 μM BmdB A2 injected into 60 μM dimeric BmdC, 25 °C, 50 mM Tris-HCl pH 7.5, 200 mM NaCl, 1 mM TCEP; fitted with a binding model using a stoichiometry of 1; triplicate
Conditions: both partners purified

B1: BmdB_A2 (domain or fragment)
chain: YNATAEPIPAATLHQLFIDQAQRTPDQVAVVFEQEWLTYSELDQRSNQVARFLQSRGIGRGDRVGVLAKRQVETIINLMAVLKAGAAYVPIDPDHPYERQTYILENSSCKILLDSDLYETMEISSYADGDLTPVAEPEDTAYVIYTSGSTGRPKGVIITHQAASNTIQDINRKFEVNEEDRIIGISSMCFDLSVYDIFGTLSAGATLVMIRDPRDMRELVRTVERRGITIWNTVPAIMDLALDHVGSHFENISLRLVLLSGDWIPLPLPAKINRHFPVADVISLGGATEASIWSIYWPIEQVEANWKSIPYGKPLANQTYYVLNYDQKMCPVGVIGDLYIGGAGLAQGYLNDDQKTKDAFIMHPEFGPIYKTGDCGRMRPEGYIEFLGRQDYQVKIQGYRVELEEISHCLLTYPDVDQAVVIDQTDERGMKFLVGYVVAQQEIDEKALRKHLMEHLPEYMIPAHLVHLEQLPLTPNGKLDRKALPVPKKQRNAEKFV
For B1, the Kd was ~75 nM and 44 to 118 nM.
